B1: antibody A5 (L5H5) (antibody, V domains shown)
VH: QVQLVESGGGVVQPGRSLRLSCAASGFTFSSYGMHWVRQAPGKGLEWVAVIWYDGNNKYYADSVKGRFTISRDNSKNTLYLQMYSLRAEDTAVYYCARGGILAAGIFDYWGQGTLVTVSS
VL: EIVLTQSPGTLSLSPGDRATLSCRASQSGSSSYLAWYQQKPGQAPRLLIYGASSRATGIPDRFSGSGSGTDFTLTISRLEPEDFAVYYCQQYGTSPFTSGPGTKVDIK
notes: also called aCTLA-4.28; CTLA4.A5
B2: antibody A7 (L7H7) (antibody, V domains shown)
VH: QVQLVESGGGVVQPGRSLRLSCAASGFTLSSFGMHWVRQAPGKGLEWVAVIWYDGSNKYYADSVKGRFIISRDNSKTALYLQMNSLRAEDTAVYYCARAHYFGAFDIWGQGTMVTVSS
VL: not shown
notes: also called aCTLA-4.3; CTLA4.A7
B3: antibody A2 (L2H2) (antibody, V domains shown)
VH: QVQLVESGGGVVQPGRSLRLSCAASGFTFSNYGMNWVRQAPGKGLEWVAVIWYDGRNKHYADSVKGRFTISRDNSKNTLYLQMNSLRAEDTAVYYCARGGDWGPYFDYWGQGTLVTVSS
VL: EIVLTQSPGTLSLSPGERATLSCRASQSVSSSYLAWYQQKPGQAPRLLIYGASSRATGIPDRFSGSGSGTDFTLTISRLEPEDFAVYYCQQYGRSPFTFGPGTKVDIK
notes: also called aCTLA-4.4; CTLA4.A2

What was measured:
mouse CTLA-4 = mouse CTLA-4 (mouse, UniProt P09793 36-161, limits assumed); experiment: BLI (Octet)
Chain of mouse CTLA-4 (P09793 36-161 limits assumed): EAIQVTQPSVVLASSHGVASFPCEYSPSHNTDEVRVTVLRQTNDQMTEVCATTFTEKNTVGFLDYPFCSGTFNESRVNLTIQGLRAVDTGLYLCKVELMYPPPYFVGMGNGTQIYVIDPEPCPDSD
Outline: (§1)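 Antibodies captured on anti-human IgG Fc (AHC) biosensors (Octet Red96); antigen analyte from 300 nM in 6 serial 1:3 dilutions. Kinetics from global fitting to a 1:1 binding model.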

[1] = target: T1, His-tagged cynomolgus CTLA-4 (CT4-C5227; Acro Biosystems) (cynomolgus, UniProt G7PL88 36-161); experiment: BLI (Octet)
T1 construct: also called soluble cynomolgus CTLA-4; cyno CTLA-4
T1 sequence (G7PL88 entry or part of it limits assumed, form in doubt): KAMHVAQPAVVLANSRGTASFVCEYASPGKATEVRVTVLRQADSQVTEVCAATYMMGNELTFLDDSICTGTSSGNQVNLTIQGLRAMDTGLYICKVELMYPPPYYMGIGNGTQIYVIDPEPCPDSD
Outline: as §1

[2] = target: T2, His-tagged human CTLA-4 (CT4-H5229; Acro Biosystems) (human, UniProt P16410 36-161); experiment: SPR (Carterra), soluble human CTLA-4
T2 construct: bought soluble protein; also called soluble human CTLA-4; recombinant human CTLA-4; not shown: His tag
T2 sequence (P16410 36-161 limits assumed): as the sequence (G7PL88 entry or part of it limits assumed, form in doubt) above, with N14S, T18I, M106L counted along it

[3] = target: T3, recombinant human CTLA-4-Fc (7268-CT, R&D Systems) (human, UniProt P16410 36-162); experiment: blocking ELISA, coated CTLA-4-Fc, competitor His-CD80
T3 construct: bought; also called rhCTLA-4-Fc; rhCTLA4-Fc; Fc part of the bought chimera not given
T3 sequence (P16410 36-162): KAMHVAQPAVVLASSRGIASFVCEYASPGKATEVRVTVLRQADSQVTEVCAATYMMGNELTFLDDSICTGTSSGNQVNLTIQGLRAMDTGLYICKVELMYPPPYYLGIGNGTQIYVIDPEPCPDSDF
Procedure: (§2) Table 24. […] Summary of blocking ELISA data from FIG. 13B. […] The data were then analyzed and fit by nonlinear regression.
(§3) ELISA plates (Nunc, MaxiSorp ELISA plates, flat bottom, uncoated, BioLegend, San Diego, Calif., USA) were coated with recombinant human CTLA-4-Fc (7268-CT, R&D Systems, Minneapolis, Minn., USA) at 1 μg/mL overnight at 4° C. Plates were then blocked with 5% milk in phosphate buffered saline with tween 20 (PBST) for 1 hour at room temperature. A titration series of the indicated mAbs was then added to the plates and then the plates were incubated for 1 hour at room temperature to allow mAb binding. Excess, unbound mAb was removed by washing with PBST. […] After incubation for 1 hour at room temperature, the plates were washed to remove unbound ligand. Bound ligand was detected with a horseradish peroxidase (HRP)-conjugated anti-His antibody (652504, BioLegend, San Diego, Calif., USA). After incubation for 1 hour at room temperature and washing, the plates were developed with 3,3′,5,5′-Tetramethylbenzidine (TMB) substrate (34028, Pierce, Waltham, Mass., USA). […] Absorbance at 450 nm was read using a Spectramax i3x plate reader (Molecular Devices. San Jose, Calif., USA). Half maximal inhibitory concentration (IC50) values were calculated by plotting absorbance versus the log of concentration using Prism (GraphPad, San Diego, Calif., USA).

[4] = target: T3, recombinant human CTLA-4-Fc (7268-CT, …); experiment: blocking ELISA, plate rhCTLA4-Fc, competitor rhCD86-His
Procedure: (§4) Plates were coated with rhCTLA4-Fc and then blocked with 1×PBST with 5% w/v nonfat dry milk. After blocking a dilution series of the indicated antibody was added to the plate.

[5] = target: T3, recombinant human CTLA-4-Fc (7268-CT, …); experiment: blocking ELISA, coated CTLA-4-Fc, competitor His-CD86
Procedure: as §2, §3

[6] = target: T3, recombinant human CTLA-4-Fc (7268-CT, …); experiment: blocking ELISA, plate rhCTLA4-Fc, competitor rhCD80-His
Procedure: as §4

Binder	Kd (mouse CTLA-4)	Kd [1]	Kd [2]	koff [2]	kon [2]	IC50 [3]	CD86 % inhibition [4]	EC50 [4]	IC50 [5]	CD80 % inhibition [6]	EC50 [6]	binding result (mouse CTLA-4)
B1	39.4 nM	2.2 nM	4.6 nM	0.00042 s⁻¹	90000 M⁻¹ s⁻¹	0.12 µg/mL	90.6%	0.122 µg/mL	0.12 µg/mL	96.3%	0.0705 µg/mL	–
B2	–	0.75 nM	5.7 nM	0.00036 s⁻¹	64000 M⁻¹ s⁻¹	–	78.8%	1.98 µg/mL	–	92.1%	0.996 µg/mL	no binding (tested: 300 nM)
B3	–	3.1 nM	5.1 nM	0.00052 s⁻¹	100000 M⁻¹ s⁻¹	–	91.5%	0.145 µg/mL	–	95.4%	0.101 µg/mL	no binding (tested: 300 nM)
